Our source for the Kd values is PMC5484534.

pKd: −log10 of the molar value.

In the assay the target is 5,6-TAMRA-labeled short BMAL1 TAD (residues 594-626), wild type (mouse). Description: fluorescence polarisation. In general terms: Polarisation of emitted light reports the rotation of a fluorescent probe.

mouse CRY1 photolyase homology region (PHR, residues 1-491), sequence (P97784 1-491): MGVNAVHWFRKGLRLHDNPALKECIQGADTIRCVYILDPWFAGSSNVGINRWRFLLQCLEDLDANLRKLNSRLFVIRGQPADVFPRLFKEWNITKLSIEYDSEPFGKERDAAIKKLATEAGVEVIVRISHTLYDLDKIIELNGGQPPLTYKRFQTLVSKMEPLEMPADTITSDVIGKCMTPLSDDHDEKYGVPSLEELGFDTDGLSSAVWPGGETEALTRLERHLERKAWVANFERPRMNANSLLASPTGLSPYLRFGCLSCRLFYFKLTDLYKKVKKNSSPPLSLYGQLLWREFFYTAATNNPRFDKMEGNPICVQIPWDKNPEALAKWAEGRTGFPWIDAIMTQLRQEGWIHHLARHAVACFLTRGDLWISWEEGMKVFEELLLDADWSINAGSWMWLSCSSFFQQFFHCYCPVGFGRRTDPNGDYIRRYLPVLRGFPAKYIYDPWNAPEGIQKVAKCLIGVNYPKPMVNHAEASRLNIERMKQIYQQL

Consider “mouse CRY1 photolyase homology region (PHR, residues 1-491) (from UniProt P97784 1-491) (domain or fragment)”, for which the pKd (usually −log10 of the Kd, conventionally taken in molar units) is 6.05.
